Reference: US9658208B2, “Methods and G proteins for screening and identifying ligands of G protein-coupled receptors” (Fred Hutchinson Cancer Research Center, priority 2011, dated 2017)
Numbering of substitutions follows the chain as printed. Entries after “also recorded” stand apart in the source; their conditions may differ.

T1: M2 muscarinic acetylcholine receptor (M2AchR) (Rattus norvegicus, UniProt P10980)
T1 construct: expressed in transfected cells; host or cells: HEK-293
T1 sequence (P10980 1-466): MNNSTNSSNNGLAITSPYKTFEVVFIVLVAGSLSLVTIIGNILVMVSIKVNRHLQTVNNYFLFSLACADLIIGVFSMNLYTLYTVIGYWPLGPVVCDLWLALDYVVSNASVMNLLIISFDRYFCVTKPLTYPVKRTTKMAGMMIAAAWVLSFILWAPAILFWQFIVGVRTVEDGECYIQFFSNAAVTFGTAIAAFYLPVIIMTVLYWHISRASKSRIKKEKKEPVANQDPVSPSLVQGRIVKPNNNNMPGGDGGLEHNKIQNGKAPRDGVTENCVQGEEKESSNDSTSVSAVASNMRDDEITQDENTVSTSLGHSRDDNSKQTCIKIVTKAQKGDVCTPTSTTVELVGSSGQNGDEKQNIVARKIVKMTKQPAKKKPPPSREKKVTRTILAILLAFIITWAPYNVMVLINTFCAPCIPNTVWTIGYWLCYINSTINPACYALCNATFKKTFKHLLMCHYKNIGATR

T2: dopamine D4 receptor (Mus musculus, UniProt P51436)
T2 construct: expressed in transfected cells; host or cells: HEK-293
T2 sequence (P51436 1-387): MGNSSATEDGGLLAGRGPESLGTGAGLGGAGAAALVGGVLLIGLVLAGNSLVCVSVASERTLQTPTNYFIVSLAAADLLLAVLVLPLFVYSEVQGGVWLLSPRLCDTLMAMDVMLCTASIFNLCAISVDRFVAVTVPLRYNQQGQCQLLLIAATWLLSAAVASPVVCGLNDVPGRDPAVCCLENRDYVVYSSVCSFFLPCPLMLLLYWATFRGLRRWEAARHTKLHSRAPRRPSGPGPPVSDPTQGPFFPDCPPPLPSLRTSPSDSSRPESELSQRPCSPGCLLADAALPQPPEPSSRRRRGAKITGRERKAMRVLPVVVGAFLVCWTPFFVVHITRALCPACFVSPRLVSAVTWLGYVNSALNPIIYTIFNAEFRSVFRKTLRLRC

B1: Gαs-Gα15-13: Gαs-based chimeric G protein, final 13 C-terminal amino acids substituted with those of Gα15 (protein)
chain: MGCLGNSKTEDQRNEEKAQREANKKIEKQLQKDKQVYRATHRLLLLGAGESGKSTIVKQMRILHVNGFNGEGGEEDVPDYASNSDGEKATKVQDIKNNLKEAIETIVAAMSNLVPPVELANPENQFRVDYILSVMNVPNFDFPPEFYEHAKALWEDEGVRACYERSNEYQLIDCAQYFLDKIDVIKQADYVPSDQDLLRCRVLTSGIFETKFQVDKVNFHMFDVGGQRDERRKWIQCFNDVTAIIFVVASSSYNMVIREDNQTNRLQEALNLFKSIWNNRWLRTISVILFLNKQDLLAEKVLAGKSKIEDYFPEFARYTTPEDATPEPGEDPRVTRAKYFIRDEFLRISTASGDGRHYCYPHFTCAVDTENIRRVFNDCRDSVLARYLDEINLL
modifications: Chimeric protein
notes: Gαs-based chimeric G protein, final 13 C-terminal amino acids substituted with those of Gα15
B2: Gαs-Gαi-13: Gαs-based chimeric G protein, C-terminal 13 amino acids of Gαs substituted with those of Gαi (protein)
chain: MGCLGNSKTEDQRNEEKAQREANKKIEKQLQKDKQVYRATHRLLLLGAGESGKSTIVKQMRILHVNGFNGEGGEEDVPDYASNSDGEKATKVQDIKNNLKEAIETIVAAMSNLVPPVELANPENQFRVDYILSVMNVPNFDFPPEFYEHAKALWEDEGVRACYERSNEYQLIDCAQYFLDKIDVIKQADYVPSDQDLLRCRVLTSGIFETKFQVDKVNFHMFDVGGQRDERRKWIQCFNDVTAIIFVVASSSYNMVIREDNQTNRLQEALNLFKSIWNNRWLRTISVILFLNKQDLLAEKVLAGKSKIEDYFPEFARYTTPEDATPEPGEDPRVTRAKYFIRDEFLRISTASGDGRHYCYPHFTCAVDTENIRRVFNDCRDVIIKNNLKDCGLF
modifications: Chimeric protein
notes: Gαs-based chimeric G protein, C-terminal 13 amino acids of Gαs substituted with those of Gαi
B3: Gαs-Gαz-13: Gαs-based chimeric G protein, final 13 C-terminal amino acids substituted with those of Gαz (protein)
chain: B2 chain with K385Q, D390Y, C391I, F394C
modifications: Chimeric protein
notes: Gαs-based chimeric G protein, final 13 C-terminal amino acids substituted with those of Gαz
B4: Gαs-Gαo-13: Gαs-based chimeric G protein, final 13 C-terminal amino acids substituted with those of Gαo (protein)
chain: B2 chain with V382I, K385A, K389R, D390G, F394Y
modifications: Chimeric protein
notes: Gαs-based chimeric G protein, final 13 C-terminal amino acids substituted with those of Gαo

Experiments:
Format in all cases: cell-based
[1] = molecular target: T1, M2 muscarinic acetylcholine receptor (M2AchR); assay: CRE-SEAP reporter gene assay, coupling of Gαs-based chimeric G proteins with M2AchR (transient); settings: 10 uM acetylcholine; for increase in SEAP activity: HEK-293 cells cotransfected with chimera, M2AchR and CRE-SEAP
Procedure: The constructs encoding chimeric G proteins were made by substituting C-terminal amino acids of Gαs (SEQ ID NO: 1) with the corresponding C-terminal amino acid sequences of other Gα subunits. A first set of Gαs-based chimeric G proteins was prepared by designing constructs encoding seven Gαs-Gαi chimeras in which the C-terminal 5, 11, 13, 28, 65, 84, or 131 amino acids of Gαs were substituted with the corresponding C-terminal amino acids from the […]. Briefly, HEK-293 cells were cotransfected with chimera constructs together with the CRE-SEAP reporter gene construct and a cDNA encoding the M2 muscarinic acetylcholine receptor (M2AchR), a GPCR that couples to Gαo but not to Gαs and inhibits cAMP production. The transfected cells were cultured in the presence or absence of acetylcholine and then assayed for SEAP activity.
A series of chimeric constructs were prepared in which the final 13 C-terminal amino acids of the Gαs subunit were substituted with the final 13 C-terminal amino acids from Gαo, Gαz, Gαt, Gαq, or Gα15 subunits. Also tested were the Gαs-Gαi-13 and a chimera containing the last 5 C-terminal amino acids of Gαk (Gαs-Gαk-5 (SEQ ID NO: 2)). These chimeric constructs were tested for coupling with M2AchR. […] The Gαs-Gαo-13 (SEQ ID NO: […]) and Gαs-Gα15-13 (SEQ ID NO: 7) allowed approximately 2-fold increases in SEAP activity.
(§1) Chimeric G protein cloning: An insert containing rat Gαs cDNA was cut out using the restriction enzymes SaII and HinDIII, and ligated into pcDNA3.1(−) cut with XhoI and HinDIII. The chimeric G proteins with the desired C-terminal amino acid substitutions were prepared by PCR using Gαs as a template. More specifically, Gαs was PCR amplified between an internal EcoRI site and the stop codon, with a 3′ HinDIII placed immediately after the stop codon. A different 3′ oligonucleotide was used for each Gαs chimera and contained a 39 bp sequence that encoded the substituted amino acids at the C-terminus selected from the donor Gα subunit.
M2AchR GPCR cloning: Rat M2AchR receptor was cloned by PCR from cDNA templates (ATCC) and ligated into pcDNA 3.1(−) for expression in mammalian cells.
CRE-SEAP Reporter Gene Assay: 0.5×10^5 HEK-293 cells (ATCC) were seeded into each well of a 96 well plate 24 hours prior to transfection. cDNAs encoding M2AchR, SEAP reporters (Mercury Pathway Profiling System, BD Biosciences), and G protein chimeras were transfected into HEK-293 cells using lipofectamine reagent (Invitrogen) according to the manufacturer's protocols. […]
Following transfection, the cells were maintained for 48 hours in 200 ul serum free media containing 10 uM acetylcholine (Sigma). […] Fluorescence was then measured using a CytoFluor 4000 multi well plate reader (Applied Biosystems).

[2] = system: nine GPCRs that do not bind to Gαs (serotonin 1b, neuropeptide Y1, leukotriene B4, dopamine D4, GNRH, UDP, calcium-sensing, T1R2/T1R3); assay: CRE-SEAP reporter gene assay, coupling of chimeric G proteins with a variety of GPCRs; settings: HEK-293 cells, GPCR ligand 48 hours
Text: (§2) The GPCRs examined were those that couple with Gαi/Gαo subunits (serotonin 1b, neuropeptide Y1, leukotriene B4, and dopamine D4), Gαq (GNRH, UDP, and calcium-sensing receptors), and the orphan mammalian sweet taste receptor complex (T1R2 and T1R3) with unknown coupling preference. The Gαs-based chimeric G proteins examined in this example were Gαs-Gαi-5, Gαs-Gαt-13 (SEQ ID NO: 3), Gαs-Gαo-13 (SEQ ID NO: 4), Gαs-Gαi-13 (SEQ ID NO: 5), Gαs-Gαz-6 (SEQ ID NO: 18), Gαs-Gα15-13 (SEQ ID NO: 7), Gαs-Gαk-5 (SEQ ID NO: 2), and Gαs-Gαq-13 (SEQ ID NO: 8). The chimeric G protein constructs were prepared as described herein. For the coupling assay, HEK-293 cells were cotransfected with each of the Gαs-based chimeric G protein constructs of interest together with the CRE-SEAP reporter gene construct and a cDNA encoding the GPCR to be tested. The transfected cells were cultured in the presence or absence of a GPCR ligand and then assayed for SEAP activity.
as §1, with “substitutions from the Gαi, Gαt, Gαo, Gαz, Gα15, Gαk, and Gαq” for “substitutions”
GPCR cloning: Mouse 5-HT1B, mouse dopamine D4, human GNRH, and human neuropeptide Y1 receptors were cloned by PCR from cDNA templates (ATCC) and ligated into pcDNA 3.1(−) (Invitrogen) for expression in mammalian cells. […]
(§3) Following transfection, the cells were maintained for 48 hours in 200 ul serum free media containing GPCR ligand. […] Fluorescence was then measured using a CytoFluor 4000 multi well plate reader (Applied Biosystems).

dopamine D4 receptor = molecular target: T2, dopamine D4 receptor; assay: CRE-SEAP reporter gene assay, coupling with dopamine D4; settings: HEK-293 cells, 1 uM dopamine
Text: as §2
Chimeric G protein cloning: An insert containing rat Gαs cDNA was cut out using the restriction enzymes SaII and HinDIII, and ligated into pcDNA3.1(−) cut with XhoI and HinDIII. […]
as §3

Molecule | increase in SEAP activity [1] | ligand induced increases in SEAP activity mediated by M2AchR (in words) ([1]; HEK-293 cells) | GPCRs tested that coupled to the chimera [2] | coupling with dopamine D4 receptor (dopamine D4 receptor)
B1 | approximately 2 fold | – | – | –
B2 | – | Particularly effective; also recorded: highest responses | seven of the nine | –
B3 | approximately 2 fold | – | – | –
B4 | – | – | seven of the nine | permitted a response
